According to publication PMC4873334 (Neuron, 2016):

B1: Pcdh β6 EC1–4 (mouse clustered protocadherin β6, extracellular cadherin domains 1–4) (domain or fragment)
chain: EAIRYSIPEETESGYLVAHLAKDLGFRVGELATRRARIHHRGNKELLQLDVETGNLLLKEKPDREALCGATEPCVLHFQIILENPVQFFQTELQLTDINDHSPEFPDTEMLLKIQESTQPATVFLLKAAQDSDIGSNAVQNYTVSPNLHFHVVTLSRSDGRKYPELVLDRALDREEQPELTLILTALDGGAPPKSGTTTVRIEVVDINDNAPEFVQSLYSVEVPENSPLDALVVTVSARDLDAGIHGNVAYSLFQGGGGPQPFVIDEITGEIRLKGALDFEATSYYTMEIVATDSGGLSGKCTVAIQVLDVNDNAPKLTISSLTSSIPENAPEAVVAVFSVSDPDSGDNGRMVCSIQNELPFLLKPTFENYYTLAAEGPLDREIREEYNITIIVSDLGTPRLTTQHTITVQVVDIND
modifications: N- and O-linked glycans; O-mannose at positions 194 and 196 (α7 numbering) of EC2
B2: Pcdh α7 EC1–5 (mouse clustered protocadherin α7, extracellular cadherin domains 1–5) (domain or fragment)
chain: QLHYSVPEEAKHGTFVGRIAQDLGLELTELVPRLFRVASKDRGDLLEVNLQNGILFVNSRIDREELCGRSAECSIHLEVIVDRPLQVFHVEVEVKDINDNPPMFPATQKALFILESRLLDSRFPLEGASDADVGSNALLTYRLSTNEHFSLDVPPNHEQVKPLGLVLRKPLDREEAAEIRLLLTATDGGKPELTGTVQLLITVLDVNDNAPVFDRSLYTVKLPENVPNGTLVIKVNASDLDEGVNGDVMYSFSSDVSSDIKSKFHMDTVSGEITVIGIIDFEESKAYKIPLEARDKGFPQLPGHCTILVEVVDANDNAPQLTVSSLSLPVSEDSQPGRVVTLISVFDRDSGANGQVTCSLTPHIPFKLVSTFKNYYSLVLDSALDRETIANYDVIVTARDGGSPSLWATASVSVEVADVNDNAPLFAQPEYTVFVKENNPPGAHIFTVSAMDADAQENALVSYSLVERRVGERLLSSYVSVHAESGKVFALQPLDHEELELLQFQVSARDAGVPALGSNVTLQVFVLDEND
modifications: N- and O-linked glycans; O-mannose at positions 194 and 196 (EC2), T409 (EC4) and S449 (EC5)
B3: Pcdh α4 EC1–4 (mouse clustered protocadherin α4, extracellular cadherin domains 1–4) (domain or fragment)
chain: QIHYSIPEEAKHGTFVGRIAQDLGLELTELVPRLFRVASKDRGDLLEVNLQNGILFVNSRIDREELCGRSAECSIHLEVIVDRPLQVFHVEVEVRDINDNPPRFPTTQKNLFIAESRPLDTWFPLEGASDADIGINAVLTYRLSPNDYFSLEKPSNDERVKGLGLVLRKSLDREETPEIILVLTVTDGGKPELTGSVQLLITVLDANDNAPVFDRSLYTVKLPENVPNGTLVVKVNASDLDEGVNGDIMYSFSTDISPNVKYKFHIDPVSGEIIVKGYIDFEECKSYEILIEGIDKGQLPLSGHCKVIVQVEDINDNVPELEFKSLSLPIRENSPVGTVIALISVSDRDTGVNGQVTCSLTSHVPFKLVSTFKNYYSLVLDSALDRETTADYKVVVTARDGGSPSLWATASVSVEVADVND
modifications: N- and O-linked glycans; O-mannose on T409, S411 and S413 (EC4)
B4: Pcdh β8 EC1–4 (mouse clustered protocadherin β8, extracellular cadherin domains 1–4) (domain or fragment)
chain: EAISYSMPEETESGYLVANLAQDLGLRVGELTTRGARIHHNGNKELLQLDAERGNLLLKEKPDREALCGATEPCVLHFQIILENPVQFFQTDLQFTDINDHFPEFPDTEMLLKIQEIAQPGTVFPLKAAQDPDIGSNAVQNYTVSPNLHFHVVTLSRSDDRKYPELVLDRALDREEQPELTLILTALDGGAPPKSGTTTVRIEVVDINDNAPQFLQSLYAVEVPENSPLNALVVTVSARDLDAGIHGNVAYSLFQGGGGPQPFVIDEITGEIRLKGALDFEATSYYTMEIVATDSGGLSGKCTVAIQVLDVNDNAPKLTISSLTSSIPENAPEAVVAVFSVSDPDSGDNGRMVCSIQNGLPFLLKPTFKNFYTLVTERPLDRESNAEYNITITVSDLGTPRLTTQHTITVQVSDINDN
modifications: N- and O-linked glycans; O-mannose at positions 194 and 196 (α7 numbering) of EC2 and on T199

Assays:
[1] = target: Pcdhα7 EC1-5 (Mus musculus) (UniProt Q91Y13); details: cited from earlier work
AUC = target: the molecule itself; experiment: AUC

| Molecule | Kd [1] [µM] | Kd (AUC) [µM] | stoichiometry N (AUC) |
| --- | --- | --- | --- |
| Pcdhα7 EC1-5 (from UniProt Q91Y13) | 2.91 |  |  |
| B1 |  | 16.3 ± 2.08 | 2 |
| B2 |  |  | 2 |
| B3 |  | 0.037 ± 0.0082 | 2 |
| B4 |  | 24 ± 0.43 | 2 |
